Square brackets hold non-standard residues; d marks the D form. Ends that are not written are not given here. Nle = CCCC[C@H](N)C(=O)O
What was measured:
hMC3-R = target: T1, hMC3-R (Homo sapiens, UniProt P41968); assay: competitive inhibition binding assay, 125I-NDP-alpha-MSH, hMC3-R membranes; details: for % Inhibition at 1 μM at Melanocortin Receptor 3: 1 μM test peptide, 0.4 nM 125I-NDP-alpha-MSH, hMC3-R membranes
T1 construct: expressed in transfected cells
Procedure, shortened: (§1)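 Membranes from hMC3-R, hMC4-R, hMC5-R or B-16 cells (MC1-R) incubated 90 min at room temperature with 0.4 nM 125I-NDP-alpha-MSH and rhenium-complexed test peptide, typically 1 μM, in HEPES pH 7.2 with Mg/Ca/K. Filter-bound radioactivity counted; % inhibition of specific binding (1 μM alpha-MSH defines nonspecific), triplicate means.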

hMC4-R = target: T2, hMC4-R (Homo sapiens, UniProt P32245); assay: competitive inhibition binding assay, 125I-NDP-alpha-MSH, hMC4-R membranes; details: for % Inhibition at 1 μM at Melanocortin Receptor 4: 1 μM test peptide, 0.4 nM 125I-NDP-alpha-MSH, hMC4-R membranes
T2 construct: expressed in transfected cells
T2 sequence (P32245 whole entry): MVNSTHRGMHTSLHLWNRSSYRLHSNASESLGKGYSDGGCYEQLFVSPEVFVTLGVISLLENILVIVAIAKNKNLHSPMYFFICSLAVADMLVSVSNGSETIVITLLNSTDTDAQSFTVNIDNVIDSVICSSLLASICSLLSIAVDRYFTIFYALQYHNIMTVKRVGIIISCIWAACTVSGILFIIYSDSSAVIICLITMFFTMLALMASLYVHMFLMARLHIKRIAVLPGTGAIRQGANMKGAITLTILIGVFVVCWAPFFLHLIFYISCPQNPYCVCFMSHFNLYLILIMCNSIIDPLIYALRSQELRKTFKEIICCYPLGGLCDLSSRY
Procedure, shortened: as §1

hMC5-R = target: T3, hMC5-R (Homo sapiens, UniProt P33032); assay: competitive inhibition binding assay, 125I-NDP-alpha-MSH, hMC5-R membranes; details: for % Inhibition at 1 μM at Melanocortin Receptor 5: 1 μM test peptide, 0.4 nM 125I-NDP-alpha-MSH, hMC5-R membranes
T3 construct: expressed in transfected cells
T3 sequence (P33032 whole entry): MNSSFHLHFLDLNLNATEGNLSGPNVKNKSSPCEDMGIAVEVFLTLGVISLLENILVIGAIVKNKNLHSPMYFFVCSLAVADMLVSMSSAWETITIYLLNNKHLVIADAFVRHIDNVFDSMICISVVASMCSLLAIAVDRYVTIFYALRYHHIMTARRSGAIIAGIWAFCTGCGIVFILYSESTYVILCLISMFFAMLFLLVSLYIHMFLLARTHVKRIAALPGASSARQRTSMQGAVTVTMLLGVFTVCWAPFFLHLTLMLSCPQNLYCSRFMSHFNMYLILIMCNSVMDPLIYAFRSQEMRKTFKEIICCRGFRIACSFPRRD
Procedure, shortened: as §1

MC1-R = target: T4, MC1-R (Mus musculus, UniProt Q01727); assay: competitive inhibition binding assay, 125I-NDP-alpha-MSH, B-16 mouse melanoma cell membranes; details: for % Inhibition at 1 μM at Melanocortin Receptor 1: 1 μM test peptide, 0.4 nM 125I-NDP-alpha-MSH, B-16 mouse melanoma cell membranes
T4 construct: membranes prepared from hMC3-R, hMC4-R, hMC5-R, and B-16 mouse melanoma cells (containing MC1-R); endogenous in cells; host or cells: B-16 mouse melanoma cells (membranes)
T4 sequence (Q01727 whole entry): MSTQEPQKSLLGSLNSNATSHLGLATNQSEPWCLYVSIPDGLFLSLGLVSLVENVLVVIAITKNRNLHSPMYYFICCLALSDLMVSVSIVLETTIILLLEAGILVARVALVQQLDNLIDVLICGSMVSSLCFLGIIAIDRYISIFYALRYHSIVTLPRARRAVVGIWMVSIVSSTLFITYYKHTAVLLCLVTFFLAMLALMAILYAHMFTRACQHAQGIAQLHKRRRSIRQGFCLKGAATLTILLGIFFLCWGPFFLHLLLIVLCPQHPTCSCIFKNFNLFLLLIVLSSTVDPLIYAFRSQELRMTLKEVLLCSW
Procedure, shortened: as §1

T1 sequence (P41968 whole entry): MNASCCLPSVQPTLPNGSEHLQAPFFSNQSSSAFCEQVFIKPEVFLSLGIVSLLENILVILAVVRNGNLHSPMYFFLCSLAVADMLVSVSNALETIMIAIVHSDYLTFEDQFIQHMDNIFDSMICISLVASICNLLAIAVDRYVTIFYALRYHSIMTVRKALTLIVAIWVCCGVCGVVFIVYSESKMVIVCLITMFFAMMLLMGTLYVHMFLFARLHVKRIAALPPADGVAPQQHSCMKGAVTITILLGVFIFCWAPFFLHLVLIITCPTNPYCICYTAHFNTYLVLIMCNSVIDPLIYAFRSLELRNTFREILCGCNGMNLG

Substance	% Inhibition at 1 μM at Melanocortin Receptor 3 (hMC3-R) [%]	% Inhibition at 1 μM at Melanocortin Receptor 4 (hMC4-R) [%]	% Inhibition at 1 μM at Melanocortin Receptor 5 (hMC5-R) [%]	% Inhibition at 1 μM at Melanocortin Receptor 1 (MC1-R) [%]	binding to MC3-R, in words (hMC3-R)	binding to MC4-R, in words (hMC4-R)	binding to MC5-R, in words (hMC5-R)	binding to MC1-R, in words (MC1-R)
Tyr-Val-Nle-Gly-His-D-Phe-Arg-Cys-Asp-Arg-Phe-NH2 (YV[Nle]GH[dF]RCDRF-NH2; numbers in words are those of the source; also: oxorhenium(V) N3S1 chelate complex (Re=O)) [5-4]	11	18	58	86				
Tyr-Val-Nle-Gly-His-Phe-Arg-Cys-Trp-Asp-Arg-Phe-NH2 (YV[Nle]GHFRCWDRF-NH2; numbers in words are those of the source; also: oxorhenium(V) N3S1 chelate (Re=O) with Cys) [4-5]	87	74	68	89	preserved all receptor binding	preserved all receptor binding	preserved all receptor binding	preserved all receptor binding
Tyr-Val-Nle-Gly-His-Cys-Phe-Arg-Trp-Asp-Arg-Phe-NH2 (YV[Nle]GHCFRWDRF-NH2; numbers in words are those of the source; also: oxorhenium(V) N3S1 chelate (Re=O) with Cys) [4-7]	17	4	15	−4				
Ac-Ser-Tyr-Ser-Nle-Glu-His-Phe-Arg-Trp-Gly-Lys-Cys-Pro-Val-NH2 (Ac-SYS[Nle]EHFRWGKCPV-NH2; not fully specified (bridges); printed as Ac-Ser-Tyr-Ser-Nle-Glu-His-Phe-Arg-Trp-Gly-Lys-Cys-Pro-Val-NH2; numbers in words are those of the source; also: oxorhenium(V) N3S1 chelate (Re(V)=O)) [1-3]	0	0	12	87				
Tyr-Val-Nle-Cys-Gly-His-D-Phe-Arg-Trp-Asp-Arg-Phe-NH2 (YV[Nle]CGH[dF]RWDRF-NH2; not fully specified (bridges); printed as Tyr-Val-Nle-Cys-Gly-His-D-Phe-Arg-Trp-Asp-Arg-Phe-NH2; numbers in words are those of the source; also: oxorhenium(V) N3S1 chelate complex (Re=O)) [3-10]	78	80	86	84				
Tyr-Val-Nle-Gly-Cys-His-D-Phe-Arg-Trp-Asp-Arg-Phe-NH2 (YV[Nle]GCH[dF]RWDRF-NH2; not fully specified (bridges); printed as Tyr-Val-Nle-Gly-Cys-His-D-Phe-Arg-Trp-Asp-Arg-Phe-NH2; numbers in words are those of the source; also: oxorhenium(V) N3S1 chelate complex (Re=O)) [3-9]	69	55	67	77				
Tyr-Val-Nle-Gly-His-D-Phe-Arg-Trp-Asp-Arg-Cys-NH2 (YV[Nle]GH[dF]RWDRC-NH2; numbers in words are those of the source; also: oxorhenium(V) N3S1 chelate complex (Re=O)) [5-1]	92	95	98	101				
Ac-Ser-Tyr-Ser-Nle-Glu-His-Phe-Arg-Cys-Trp-Gly-Lys-Pro-Val-NH2 (Ac-SYS[Nle]EHFRCWGKPV-NH2; not fully specified (bridges); printed as Ac-Ser-Tyr-Ser-Nle-Glu-His-Phe-Arg-Cys-Trp-Gly-Lys-Pro-Val-NH2; numbers in words are those of the source; also: oxorhenium(V) N3S1 chelate (Re(V)=O)) [1-6]	0	0	0	29				
Tyr-Val-Nle-Gly-His-D-Phe-Cys-Trp-Asp-Arg-Phe-NH2 (YV[Nle]GH[dF]CWDRF-NH2; numbers in words are those of the source; also: oxorhenium(V) N3S1 chelate complex (Re=O)) [5-5]	15	26	28	67				
Ac-Ser-Tyr-Ser-Cys-Nle-Glu-His-Phe-Arg-Trp-Gly-Lys-Pro-Val-NH2 (chain 1 Ac-SYSC[Nle]; chain 2 EHFRWGKPV-NH2; not fully specified (bridges); printed as Ac-Ser-Tyr-Ser-Cys-Nle-Glu-His-Phe-Arg-Trp-Gly-Lys-Pro-Val-NH2; also: oxorhenium(V) N3S1 chelate (Re(V)=O)) [1-11]	18	21	6	95				
Tyr-Val-Nle-Gly-His-D-Phe-Arg-Trp-Cys-Asp-Arg-Phe-NH2 (YV[Nle]GH[dF]RWCDRF-NH2; also: Re complex) [3-4]	88	94	100	98				
Ac-Ser-Tyr-Ser-Nle-Glu-His-Phe-Arg-Trp-Gly-D-Cys-Lys-Pro-Val-NH2 (chain 1 EHFRWG; chain 2 CKPV; not fully specified; Ac-Ser-Tyr-Ser-Nle N-term; D-residue; amide; printed: Glu-His-Phe-Arg-Trp-Gly-; printed: Cys-Lys-Pro-Val-) [2-4]	27	40	21	91				
Tyr-Val-Nle-Gly-His-D-Phe-Arg-Cys-Trp-Asp-Arg-Phe-NH2 (YV[Nle]GH[dF]RCWDRF-NH2; also: Re complex) [3-5]	45	33	81	83				
Tyr-Val-Nle-Gly-His-D-Phe-Arg-Trp-Cys-Arg-Phe-NH2 (YV[Nle]GH[dF]RWCRF-NH2; numbers in words are those of the source; also: oxorhenium(V) N3S1 chelate complex (Re=O)) [5-3]	93	97	100	100				

— patent publication US7351690B2, “Knockout identification of target-specific sites in peptides” (priority 2000, dated 2008)
